How the values were obtained:
Settings in all cases: tags: none; hairpin, 9 bp stem, 4 nt loop
[1] = target: T1, ATHP3 (AT-hook peptide 3) (mammalian (species ), UniProt P52926 74-83); assay: ITC; two-site model, site 1, n1 = 1.3; ITC, UV melting and fluorescence in 1xBPE (6 mM Na2HPO4, 2 mM NaH2PO4, 1 mM Na2EDTA, pH 7.0), ITC 10 uM DNA; native MS probably in ammonium acetate (concentration not given); temperature not stated
T1 chain: KRPRGRPRKW

[2] = target: T2, ATHP1 (AT-hook peptide 1) (mammalian (species ), UniProt P52926 26-34); assay: as above
T2 chain: KRGRGRPRK

[3] = target: T1, ATHP3 (AT-hook peptide 3); assay: ITC; two-site model, site 2, n2 = 1.1; ITC, UV melting and fluorescence in 1xBPE (6 mM Na2HPO4, 2 mM NaH2PO4, 1 mM Na2EDTA, pH 7.0), ITC 10 uM DNA; native MS probably in ammonium acetate (concentration not given); temperature not stated
[4] = target: T2, ATHP1 (AT-hook peptide 1); assay: ITC; two-site model, site 2, n2 = 1.4; ITC, UV melting and fluorescence in 1xBPE (6 mM Na2HPO4, 2 mM NaH2PO4, 1 mM Na2EDTA, pH 7.0), ITC 10 uM DNA; native MS probably in ammonium acetate (concentration not given); temperature not stated
[5] = target: T3, ATHP2 (AT-hook peptide 2) (mammalian (species ), UniProt P52926 45-53); assay: native IMS-MS; Hoechst 33258 in minor groove, 1:1:1 complex; ITC, UV melting and fluorescence in 1xBPE (6 mM Na2HPO4, 2 mM NaH2PO4, 1 mM Na2EDTA, pH 7.0), ITC 10 uM DNA; native MS probably in ammonium acetate (concentration not given); temperature not stated
T3 chain: PKRPRGRPK

Binder: GGATATTGCCCCCGCAATATCC (structured_DNA) [FL876]
- Ka [1]: 1.1e+07 M⁻¹
- Ka [2]: 1.9e+08 M⁻¹
- Ka [3]: 1.1e+06 M⁻¹
- Ka [4]: 4e+06 M⁻¹
- binding result [5]: binds

Reference: article PMC8934665, “AT-hook peptides bind the major and minor groove of AT-rich DNA duplexes”
